Tests used:
Experiment in all cases: cell-based or functional assay
[1] = target: wild type TSHR expressed in CHO cells (human) (UniProt P16473)
[2] = target: TSHR with Arg109 mutated to Ala, expressed in CHO cells (human) (UniProt P16473)
[3] = target: TSHR with Lys183 mutated to Ala expressed in CHO cells (human) (UniProt P16473)
[4] = target: TSHR with Tyr185 mutated to Ala (human) (UniProt P16473)
[5] = target: TSHR with Arg80 mutated to Ala expressed in CHO cells (human) (UniProt P16473)
[6] = target: wild type human TSHR (full length) expressed in CHO cells (human) (UniProt P16473)
wild type TSHR (human) = wild type TSHR (human) (UniProt P16473)

## TSH (ligand)
[1]
  Experiment 2: % inhibition of TSH stimulation; TSH (2), run at the end of assay: 0%
  Experiment 2; % inhibition of TSH stimulation; TSH (2) 3 ng/mL, run at the end of assay: 3%
  Experiment 2; cyclic AMP produced; TSH 3 ng/mL: 95.8 pmol/mL
  Experiment 2; cyclic AMP produced; TSH (2) 3 ng/mL, run at the end of assay: 92.9 pmol/mL
[1]; record 2
  % inhibition of TSH stimulation; TSH (2): 0%
  % inhibition of TSH stimulation; TSH (2); Experiment 1: 0%
  % inhibition of TSH stimulation; TSH (2); Experiment 2: 0%
  Cyclic AMP produced; TSH 3 ng/mL: 76.2 pmol/mL
  Cyclic AMP produced; TSH 3 ng/mL; Experiment 1: 154 pmol/mL
  Cyclic AMP produced; TSH 3 ng/mL; Experiment 2: 59.9 pmol/mL
  Cyclic AMP produced; TSH (2): 93.8 pmol/mL
  Cyclic AMP produced; TSH (2); Experiment 1: 160 pmol/mL
  Cyclic AMP produced; TSH (2); Experiment 2: 61.5 pmol/mL
[2]
  % inhibition of TSH stimulation; TSH (2) control; Experiment 1: 0%
  % inhibition of TSH stimulation; TSH (2) control; Experiment 2: 6%
  Cyclic AMP produced; TSH 3 ng/mL; Experiment 1: 32.9 pmol/mL
  Cyclic AMP produced; TSH 3 ng/mL; Experiment 2: 53.4 pmol/mL
  Cyclic AMP produced; TSH (2); Experiment 1: 33.3 pmol/mL
  Cyclic AMP produced; TSH (2); Experiment 2: 50.4 pmol/mL
  Mutated/wild type (%) of cyclic AMP produced; TSH 3 ng/mL; Experiment 1: 49%
  Mutated/wild type (%) of cyclic AMP produced; TSH 3 ng/mL; Experiment 2: 88%
  Mutated/wild type (%) of cyclic AMP produced; TSH (2); Experiment 1: 49%
  Mutated/wild type (%) of cyclic AMP produced; TSH (2); Experiment 2: 74%
[3]
  Cyclic AMP produced (pmol/mL), 0.01 ng/mL TSH, Experiment 1: 4.95 pmol/mL
  Cyclic AMP produced (pmol/mL), 0.01 ng/mL TSH, Experiment 2: 3.73 pmol/mL
  Cyclic AMP produced (pmol/mL), 0.03 ng/mL TSH, Experiment 1: 6.94 pmol/mL
  Cyclic AMP produced (pmol/mL), 0.03 ng/mL TSH, Experiment 2: 5.37 pmol/mL
  Cyclic AMP produced (pmol/mL), 0.1 ng/mL TSH, Experiment 1: 13 pmol/mL
  Cyclic AMP produced (pmol/mL), 0.1 ng/mL TSH, Experiment 2: 10.1 pmol/mL
  Cyclic AMP produced (pmol/mL), 0.3 ng/mL TSH, Experiment 1: 35 pmol/mL
  Cyclic AMP produced (pmol/mL), 0.3 ng/mL TSH, Experiment 2: 27.8 pmol/mL
  Cyclic AMP produced (pmol/mL), 1 ng/mL TSH, Experiment 1: 57.2 pmol/mL
  Cyclic AMP produced (pmol/mL), 1 ng/mL TSH, Experiment 2: 55.8 pmol/mL
  Cyclic AMP produced (pmol/mL), 3 ng/mL TSH, Experiment 1: 69.2 pmol/mL
  Cyclic AMP produced (pmol/mL), 3 ng/mL TSH, Experiment 2: 72.2 pmol/mL
  Mutated/Wild type (%) of cyclic AMP produced, 0.01 ng/mL TSH, Experiment 1: 275%
  Mutated/Wild type (%) of cyclic AMP produced, 0.01 ng/mL TSH, Experiment 2: 287%
  Mutated/Wild type (%) of cyclic AMP produced, 0.03 ng/mL TSH, Experiment 1: 177%
  Mutated/Wild type (%) of cyclic AMP produced, 0.03 ng/mL TSH, Experiment 2: 179%
  Mutated/Wild type (%) of cyclic AMP produced, 0.1 ng/mL TSH, Experiment 1: 146%
  Mutated/Wild type (%) of cyclic AMP produced, 0.1 ng/mL TSH, Experiment 2: 151%
  Mutated/Wild type (%) of cyclic AMP produced, 0.3 ng/mL TSH, Experiment 1: 106%
  Mutated/Wild type (%) of cyclic AMP produced, 0.3 ng/mL TSH, Experiment 2: 106%
  Mutated/Wild type (%) of cyclic AMP produced, 1 ng/mL TSH, Experiment 1: 75%
  Mutated/Wild type (%) of cyclic AMP produced, 1 ng/mL TSH, Experiment 2: 82%
  Mutated/Wild type (%) of cyclic AMP produced, 3 ng/mL TSH, Experiment 1: 80%
  Mutated/Wild type (%) of cyclic AMP produced, 3 ng/mL TSH, Experiment 2: 103%
[4]
  % inhibition of TSH stimulation, TSH (2) run at the end of assay, mutated TSHR: 22%
  Cyclic AMP produced (pmol/mL), TSH 3 ng/mL, mutated TSHR: 52.5 pmol/mL
  Cyclic AMP produced (pmol/mL), TSH (2) 3 ng/mL run at the end of assay, mutated TSHR: 41 pmol/mL
  Mutated/wild type (%) of cyclic AMP produced; TSH 3 ng/mL: 52%
  Mutated/wild type (%) of cyclic AMP produced; TSH (2) 3 ng/mL, run at the end of assay: 31.2%
[5]
  % inhibition of TSH stimulation; TSH (2): 16%
  Cyclic AMP produced; TSH 3 ng/mL: 105 pmol/mL
  Cyclic AMP produced; TSH (2): 88.2 pmol/mL
  Mutated/wild type (%) of cyclic AMP produced; TSH 3 ng/mL: 124%
  Mutated/wild type (%) of cyclic AMP produced; TSH (2): 94%
[6]
  % inhibition of TSH stimulation, TSH (2) run at the end of assay, wild type TSHR: 2%
  Cyclic AMP produced (pmol/mL), TSH 0.01 ng/mL, wild type TSHR: 2.03 pmol/mL
  Cyclic AMP produced (pmol/mL), TSH 0.03 ng/mL, wild type TSHR: 3.65 pmol/mL
  Cyclic AMP produced (pmol/mL), TSH 0.1 ng/mL, wild type TSHR: 9.65 pmol/mL
  Cyclic AMP produced (pmol/mL), TSH 0.3 ng/mL, wild type TSHR: 31.4 pmol/mL
  Cyclic AMP produced (pmol/mL), TSH 1 ng/mL, wild type TSHR: 61 pmol/mL
  Cyclic AMP produced (pmol/mL), TSH 3 ng/mL alone, wild type TSHR: 93.9 pmol/mL
  Cyclic AMP produced (pmol/mL), TSH 3 ng/mL, wild type TSHR: 82.6 pmol/mL
  Cyclic AMP produced (pmol/mL), TSH (2) 3 ng/mL run at the end of assay, wild type TSHR: 92.2 pmol/mL
  Cyclic AMP produced, TSH 0.01 ng/mL: 4 pmol/mL
  Cyclic AMP produced, TSH 0.01 ng/mL, Experiment 1: 1.09 pmol/mL
  Cyclic AMP produced, TSH 0.01 ng/mL, Experiment 2: 1.93 pmol/mL
  Cyclic AMP produced, TSH 0.03 ng/mL: 6.66 pmol/mL
  Cyclic AMP produced, TSH 0.03 ng/mL, Experiment 1: 2.31 pmol/mL
  Cyclic AMP produced, TSH 0.03 ng/mL, Experiment 2: 2.75 pmol/mL
  Cyclic AMP produced, TSH 0.1 ng/mL: 19.7 pmol/mL
  Cyclic AMP produced, TSH 0.1 ng/mL, Experiment 1: 6.54 pmol/mL
  Cyclic AMP produced, TSH 0.1 ng/mL, Experiment 2: 7.25 pmol/mL
  Cyclic AMP produced, TSH 0.3 ng/mL: 45 pmol/mL
  Cyclic AMP produced, TSH 0.3 ng/mL, Experiment 1: 26.5 pmol/mL
  Cyclic AMP produced, TSH 0.3 ng/mL, Experiment 2: 25.3 pmol/mL
  Cyclic AMP produced, TSH 1 ng/mL: 75.7 pmol/mL
  Cyclic AMP produced, TSH 1 ng/mL, Experiment 1: 67.7 pmol/mL
  Cyclic AMP produced, TSH 1 ng/mL, Experiment 2: 51 pmol/mL
  Cyclic AMP produced, TSH 3 ng/mL, Experiment 1 (mean of duplicate): 83.5 pmol/mL
  Cyclic AMP produced; TSH 3 ng/mL: 87.2 pmol/mL
  Cyclic AMP produced; TSH 3 ng/mL; Experiment 2: 69.7 pmol/mL
Wild type TSHR (human)
  % inhibition of TSH stimulation, TSH (2) run at the end of assay, wild type TSHR: 0%
  Cyclic AMP produced (mean of duplicate), TSH 3 ng/mL: 88 pmol/mL
  Cyclic AMP produced (pmol/mL), TSH 3 ng/mL, wild type TSHR: 101 pmol/mL
  Cyclic AMP produced (pmol/mL), TSH (2) 3 ng/mL run at the end of assay, wild type TSHR: 131 pmol/mL
  Cyclic AMP produced, TSH 0.01 ng/mL, Experiment 1: 1.22 pmol/mL
  Cyclic AMP produced, TSH 0.01 ng/mL, Experiment 2: 2.02 pmol/mL
  Cyclic AMP produced, TSH 0.03 ng/mL, Experiment 1: 1.85 pmol/mL
  Cyclic AMP produced, TSH 0.03 ng/mL, Experiment 2: 1.96 pmol/mL
  Cyclic AMP produced, TSH 0.1 ng/mL, Experiment 1: 4.89 pmol/mL
  Cyclic AMP produced, TSH 0.1 ng/mL, Experiment 2: 4.49 pmol/mL
  Cyclic AMP produced, TSH 0.3 ng/mL, Experiment 1: 17.4 pmol/mL
  Cyclic AMP produced, TSH 0.3 ng/mL, Experiment 2: 13.5 pmol/mL
  Cyclic AMP produced, TSH 1 ng/mL, Experiment 1: 52.9 pmol/mL
  Cyclic AMP produced, TSH 1 ng/mL, Experiment 2: 43.2 pmol/mL
  Cyclic AMP produced; TSH 3 ng/mL; Experiment 1: 70.6 pmol/mL
  Cyclic AMP produced; TSH 3 ng/mL; Experiment 2: 84.8 pmol/mL

— patent publication US20110300138A1 (published 2011)
